According to patent publication US8673313B2, “Cell penetrating peptides and its use fused to biomolecules with therapeutic action” (priority 2007, dated 2014):

Columns and labels:
[1] = system: J774 cells; test: Western blot: internalization of the cargo protein E7 to the cell; type: cell-based; conditions: 25 μM protein, J774, 4 hours at 37° C., FIG. 5
Experimental: The cells J774 grown overnight at 37° C. and 5% of CO2 with RPMI 1640, 10% inactivated calf fetal serum and 2 mM de glutamine. After that, the cell were aliquoted in tubes with 5×10^6 cells each and incubated with 25 μM of fusion protein LALF-E7, 25 μM of protein E7 and PBS during 4 hours at 37° C. The sedimentation of the cells was made by a centrifugation to 1000 rpm by 10 minutes. Wash pellet in three changes of PBS. Cells were ruptured in 100 μL of RIPA buffer (Promega) mixed in vortex per 10 second and 2 min in ice. The sedimentation of the broken cells was made by a centrifugation to 12000 rpm by 15 minutes. Protein concentration was determined to the cell extract and rum 10 μg of total protein in 15% polyacrilamide gel. Subsequently the gel was transferred to a nitrocellulose membrane. The membrane was incubated for 2 hours at room temperature with an IgG goat polyclonal antibody anti-E7 HPV 16 (Santa Cruz) diluted in PBS (1:100). Wash in three changes of PBS. Subsequently, the membrane was incubated for 45 minutes at room temperature and in a dark room with an anti-goat IgG peroxidase conjugate (Sigma) diluted in PBS (1:5000). Wash in three changes of PBS. Finally the ECL system from Amersham Pharmacia Biotech was used.

[2] = system: TC-1 tumor cell line expressing the HPV16 E7 protein; test: Treatment of established TC-1 tumors in mice (Example 8); type: in vivo, Mice C57BL/6; conditions: two immunizations every 14 days from day 10, volume at the 30 days, p<0.01 vs E7, LALF and PBS, FIG. 7
Excerpt: In order to observe the regression of established tumors from the treatment with the recombinant protein fusion LALF-E7, the tumor cell line TC-1, was used. The TC-1 tumor cell line expressing the HPV16 E7 protein was derived from primary lung cells of C57Bl/6 mice by immortalization and transformation with HPV16 E6 and E7 genes and an activated human C-Ha-ras gene as described in Lin et al. (1996)) Treatment of established tumors with a novel vaccine that enhances major histocompatibility class II presentation of tumor antigen. Cancer Res. 56:21-26. For tumor inoculation, TC-1 cells, supplied by Dr. T.-C. Wu (The Johns Hopkins Medical Institutions, Baltimore, Md.), were grown to 60-70% confluence in RPMI1640 medium supplemented with 10% fetal calf serum (Hyclone, Logan, Utah), nonessential amino acids, glutamine, pyruvate, gentamycin, beta-mercaptoethanol and 0.4 mg/mL Geneticin at 37° C. Cells were harvested by trypsinization and resuspended in Hank's buffer solution at […].
Mice C57BL/6 was inoculated with 2×10^5 cells by subcutaneous injection in right leg in volumes of 0.2 mL. […] The tumor kinetic in the different groups was followed by the tumor volume which was determined using electronic calipers and taking the measures in two orthogonal dimensions. Tumor volumes (mm^3) were calculated from these measurements according to (length×width^2)/2. […]

[3] = system: cellular immune response against the antigen E7 de HPV-16; test: ELISPOT anti-IFN-γ of splenocytes of immunized mice; type: in vivo, mice C57BL/6; conditions: 30 μg s.c., 2 doses every 14 days, without adjuvant
Experimental: In order to evaluate the cellular immune response against the antigen E7 de HPV-16, 4 groups of 3 mice females C57BL/6, from 6 to 8 weeks of born, received 2 doses of immunogens. The group 1 was immunized with the 30 μg of the recombinant protein LALF-E7; group 2 with the 30 μg of the recombinant protein E7; group 3 with 8 μg of synthetic peptide LALF and group 4 with PBS. The immunizations were made of subcutaneous way in the flank of the animal with volumes of 0.2 mL and without adjuvant. Every 14 days were administered two doses. Seven days after the second immunization, the mice were sacrificed by break-up of the cervical and the splenocytes were removed aseptically for their later analysis in a test of ELISPOT anti-gamma interferon (anti-IFN-γ). The cellular suspensions of the animals by each group met in pool and they were homogenized smoothly. […]
The test for the determination of the IFN-γ secretion was made as described previously (Vazquez-Blomquist D. et al. (2002) Induction of a strong HIV-specific CD8+ T cell response in mice using a fowlpox virus vector expressing an HIV-1 multi-CTL-epitope polypeptide. Viral Immunol. 5(2):337-356). […] After this time, the surviving cells counted and were used for determinations of ELISPOT under the same conditions.
The results were expressed as a number of spot forming cells (SFC) per 10^6 splenocytes. […]

B1: LALF-E7: recombinant fusion of CPP LALF to E7 protein of HPV 16, cysteine per glycine in Rb site (SEQ ID N0. 9 y 10) (protein)
chain: MAEFHYRIKPTFRRLKWKYKGKFWKASHGDTPTLHEYMLDLQPETTDLYGYEQLNDSSEEEDEIDGPAGQAEPDRAHYNIVTFCCKCDSTLRLCVQSTHVDIRTLEDLLMGTLGIVCPICSQKPGSRAHHHHHH
modifications: Artificial Sequence Description Protein fusion CPP LALF-E7
- detection of protein in cell extract by anti-E7 antibody (Western blot) [1]: recognized by the anti-E7 antibody
- effect on growth of established tumors (tumor volume) [2]: full inhibition of growth of established tumors
- T CD8+ lymphocyte response [3]: effective response of T CD8^+ lymphocytes
- number of SFC (IFN-γ secretor cells) relative to the groups immunized with VSSP and PBS ([3]; splenocytes 7 days after second immunization, FIG. 9): ~8 times
